These results are taken from US20040253689A1.

What all share (experiment): cell-based or functional assay
Experiment [1] addresses 6m-hIGFBP-3 (I56A, Y57A, R75A, L77A, L80A, L81A mutant CHO-hIGFBP-3) (human) (UniProt P17936).
Experiment [2] addresses recombinant hIGFBP-3 standard (R&D Systems; synthesized in NSO mouse myeloma cells) (human) (UniProt P17936).
Experiment [3] deals with wild-type CHO-hIGFBP-3 (6xHis/Xpress/enterokinase-tagged mature human IGFBP-3 expressed in CHO-K1 cells from pRSV-Sec-BP3) (human) (UniProt P17936).
Chain of wild-type CHO-hIGFBP-3 (6xHis/Xpress/enterokinase-tagged mature human IGFBP-3 expressed in CHO-K1 cells from pRSV-Sec-BP3) (human) (P17936 other isoform, or with tags, fused parts or gaps limits assumed): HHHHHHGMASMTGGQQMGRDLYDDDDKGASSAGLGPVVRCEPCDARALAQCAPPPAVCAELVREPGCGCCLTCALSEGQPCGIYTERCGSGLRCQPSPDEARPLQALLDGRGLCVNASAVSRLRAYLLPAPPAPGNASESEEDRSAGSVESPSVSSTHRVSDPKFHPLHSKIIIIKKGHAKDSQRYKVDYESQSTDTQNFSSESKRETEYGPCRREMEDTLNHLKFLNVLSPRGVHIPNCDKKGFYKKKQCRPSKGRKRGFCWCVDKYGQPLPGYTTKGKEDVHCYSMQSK

Chain of 6m-hIGFBP-3 (I56A, Y57A, R75A, L77A, L80A, L81A mutant CHO-hIGFBP-3) (human) (P17936 other isoform, or with tags, fused parts or gaps I56A Y57A R75A L77A L80A L81A I56A Y57A R75A L77A L80A L81A): as the sequence (P17936 other isoform, or with tags, fused parts or gaps limits assumed) above, with I83A, Y84A, R102A, L104A, L107A, L108A counted along it
Chain of recombinant hIGFBP-3 standard (R&D Systems; synthesized in NSO mouse myeloma cells) (human) (P17936 28-291 limits assumed): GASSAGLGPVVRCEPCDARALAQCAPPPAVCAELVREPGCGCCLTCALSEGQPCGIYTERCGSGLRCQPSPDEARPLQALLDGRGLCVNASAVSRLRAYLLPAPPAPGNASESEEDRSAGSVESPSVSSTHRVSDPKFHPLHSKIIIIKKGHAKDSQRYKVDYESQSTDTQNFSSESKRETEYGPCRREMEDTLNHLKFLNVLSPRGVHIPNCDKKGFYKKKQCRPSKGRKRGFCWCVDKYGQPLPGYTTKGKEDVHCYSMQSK

Regarding “Leu^60-IGF-I (IGF-I analogue in which leucine is substituted for tyrosine at position 60; expressed in Escherichia coli) (from UniProt P05019 49-118) (ligand)”, the percentage of floating PC-3 cells that were dead, with Leu^60-IGF-I in experiment [1] is 80%; in experiment [2], 14%; in experiment [3] it was 14%. Further, the percentage of floating PC-3 cells that were dead, without Leu^60-IGF-I in experiment [1] is 86%; in experiment [2], 82%; in experiment [3] it was 82%.
